We go through six variants from FireProtDB (doi:10.1002/pro.398).

Sequences and labels used below:
B1: Ovalbumin, P01012 (parent)
chain: MGSIGAASMEFCFDVFKELKVHHANENIFYCPIAIMSALAMVYLGAKDSTRTQINKVVRFDKLPGFGDSIEAQCGTSVNVHSSLRDILNQITKPNDVYSFSLASRLYAEERYPILPEYLQCVKELYRGGLEPINFQTAADQARELINSWVESQTNGIIRNVLQPSSVDSQTAMVLVNAIVFKGLWEKAFKDEDTQAMPFRVTEQESKPVQMMYQIGLFRVASMASEKMKILELPFASGTMSMLVLLPDEVSGLEQLESIINFEKLTEWTSSNVMEERKIKVYLPRMKMEEKYNLTSVLMAMGITDVFSSSANLSGISSAESLKISQAVHAAHAEINEAGREVVGSAEAGVDAASVSEEFRADHPFLFCIKHIATNAVLFFGRCVSP

Variants of B1 are the subject of the series. The settings on record: Gallus gallus, Thermal, CD, structure 1UHG, whole UniProt chain shown.

Turning to MGSIGAASMEFCFDVFKELKVHHANENIFYCPIAIMSALAMVYLGAKDSTRTQINKVVRFDKLPGFGDSIEAQCGTSVNVHSSLRDILNQITKPNDVYSFSLASRLYAEERYPILPEYLQCVKELYRGGLEPINFQTAADQARELINSWVESQTNGIIRNVLQPSSVDSQTAMVLVNAIVFKGLWEKAFKDEDTQAMPFRVTEQESKPVQMMYQIGLFRVASMASEKMKILELPFASGTMSMLVLLPDEVSGLEQLESIINFEKLTEWTSSNVMEERKIKVYLPRMKMEEKYNLTSVLMAMGITDVFSSSANLSGISSAEALKISQAVHAAHAEINEAGREVVGSAEAGVDAASVSEEFRADHPFLFCIKHIATNAVLFFGRCVSP [S321A], under “pH 7, Phosphate 10 mM”, the Tm turned out to be 69.3 °C and the “change of melting temperature, mutant - wild type (higher = more stable)” value (“change of melting temperature, mutant” below) was -0.5 °C.
MGSIGAASMEFCFDVFKELKVHHANENIFYCPIAIMSALAMVYLGAKDSTRTQINKVVRFDKLPGFGDSIEAQCGTSVNVHSSLRDILNQITKPNDVYSFSLASRLYAEERYPILPEYLQCVKELYRGGLEPINFQTAADQARELINSWVESQTNGIIRNVLQPASVDSQTAMVLVNAIVFKGLWEKAFKDEDTQAMPFRVTEQESKPVQMMYQIGLFRVASMASEKMKILELPFASGTMSMLVLLPDEVSGLEQLESIINFEKLTEWTSSNVMEERKIKVYLPRMKMEEKYNLTSVLMAMGITDVFSSSANLSGISSAESLKISQAVHAAHAEINEAGREVVGSAEAGVDAASVSEEFRADHPFLFCIKHIATNAVLFFGRCVSP [S165A]: where the note is “pH 7, Phosphate 10 mM”, the Tm turned out to be 70.8 °C and the “change of melting temperature, mutant” value was found to be 1 °C. Where the note is “pH 10, Glycine-NaOH 0.1 M”, the Tm turned out to be 75.6 °C and the “change of melting temperature, mutant” value was -3.3 °C.
Consider MGSIGAASMEFCFDVFKELKVHHANENIFYCPIAIMSALAMVYLGAKDSTRTQINKVVRFDKLPGFGDSIEAQCGTSVNVHSSLRDILNQITKPNDVYSFSLASRLYAEERYPILPEYLQCVKELYRGGLEPINFQTAADQAAELINSWVESQTNGIIRNVLQPSSVDSQTAMVLVNAIVFKGLWEKAFKDEDTQAMPFRVTEQESKPVQMMYQIGLFRVASMASEKMKILELPFASGTMSMLVLLPDEVSGLEQLESIINFEKLTEWTSSNVMEERKIKVYLPRMKMEEKYNLTSVLMAMGITDVFSSSANLSGISSAEALKISQAVHAAHAEINEAGREVVGSAEAGVDAASVSEEFRADHPFLFCIKHIATNAVLFFGRCVSP [R143A S321A], for which, for the setting “pH 7, Phosphate 10 mM”, the Tm stood at 70 °C and the “change of melting temperature, mutant” value was 0.2 °C. Further, under “pH 10, Glycine-NaOH 0.1 M”, the melting temperature (Tm) was 71.2 °C and the “change of melting temperature, mutant” value was -7.7 °C.
Regarding MGSIGAASMEFCFDVFKELKVHHANENIFYCPIAIMSALAMVYLGAKDSTRTQINKVVRFDKLPGFGDSIEAQCGTSVNVHSSLRDILNQITKPNDVYSFSLASRLYAEERYPILPEYLQCVKELYRGGLEPINFQTAADQAAELINSWVESQTNGIIRNVLQPSSVDSQTAMVLVNAIVFKGLWEKAFKDEDTQAMPFRVTEQESKPVQMMYQIGLFRVASMASEKMKILELPFASGTMSMLVLLPDEVSGLEQLESIINFEKLTEWTSSNVMEERKIKVYLPRMKMEEKYNLTSVLMAMGITDVFSSSANLSGISSAESLKISQAVHAAHAEINEAGREVVGSAEAGVDAASVSEEFRADHPFLFCIKHIATNAVLFFGRCVSP [R143A], where the note is “pH 7, Phosphate 10 mM”, the Tm is 69.8 °C and the “change of melting temperature, mutant” value amounted to 0 °C. Moreover, for the setting “pH 10, Glycine-NaOH 0.1 M”, the Tm was 75.6 °C and the “change of melting temperature, mutant” value is -3.3 °C.
On to MGSIGAASMEFCFDVFKELKVHHANENIFYCPIAIMSALAMVYLGAKDSTRTQINKVVRFDKLPGFGDSIEAQCGTSVNVHSSLRDILNQITKPNDVYSFSLASRLYAEERYPILPEYLQCVKELYRGGLEPINFQTAADQARELINSWVESQTNGIIRNVLQPASVDSQTAMVLVNAIVFKGLWEKAFKDEDTQAMPFRVTEQESKPVQMMYQIGLFRVASMASEKMKILELPFASGTMSMLVLLPDEVSGLEQLESIINFEKLTEWTSSNVMEERKIKVYLPRMKMEEKYNLTSVLMAMGITDVFSSSANLSGISSAEALKISQAVHAAHAEINEAGREVVGSAEAGVDAASVSEEFRADHPFLFCIKHIATNAVLFFGRCVSP [S165A S321A], for which, for the setting “pH 7, Phosphate 10 mM”, the Tm was 71.3 °C and the “change of melting temperature, mutant” value is 1.5 °C. Besides, under “pH 10, Glycine-NaOH 0.1 M”, the Tm worked out at 71.8 °C and the “change of melting temperature, mutant” value was -7.1 °C.
On the same counts, the results for MGSIGAASMEFCFDVFKELKVHHANENIFYCPIAIMSALAMVYLGAKDSTRTQINKVVRFDKLPGFGDSIEAQCGTSVNVHSSLRDILNQITKPNDVYSFSLASRLYAEERYPILPEYLQCVKELYRGGLEPINFQTAADQARELINSWVESQTNGIIRNVLQPSSVDSQTAMVLVNAIVFKGLWEKAFKDEDTQAMPFRVTEQESKPVQMMYQIGLFRVASMASEKMKILELPFAAGTMSMLVLLPDEVSGLEQLESIINFEKLTEWTSSNVMEERKIKVYLPRMKMEEKYNLTSVLMAMGITDVFSSSANLSGISSAESLKISQAVHAAHAEINEAGREVVGSAEAGVDAASVSEEFRADHPFLFCIKHIATNAVLFFGRCVSP [S237A] are 70.4 °C, 0.6 °C, 79.3 °C and 0.4 °C.
